# Laboratory results: patent US20230067960A1 (VONSUN PHARMATECH, published 2023)
# Non-standard residues stand in square brackets, D forms with d. No end group written: not given here. R1 = not defined here; R2 = not defined here; Aib = CC(C)(N)C(=O)O
# Biological target: glucagon receptor
# Experiment: cell-based or functional assay
row,Binder,"In vitro activity relative to native polypeptide (%), relative to GCG (cAMP HTRF, from EC50) [%]"
1,H[Aib]QGTFTSDLSRAMEKIAVRLFIEWLIEGGPSSGAPPPS (ends and bridges not checked) [triple agonist peptide of SEQ ID NO: 6],0.89
2,H[Aib]QGTFTSDLSRALEKIAARLFIEWLIEGGPSSGAPPPS (ends and bridges not checked) [triple agonist peptide of SEQ ID NO: 7],18.3
3,H[Aib]QGTFTSDLSLEQEKIAVRLFIEWLREGGPSSGAPPPS (ends and bridges not checked) [triple agonist peptide of SEQ ID NO: 9],20.1
4,H[Aib]QGTFTSDLSRAMEKIAVRLFIEWLREGGPSSGAPPPS (ends and bridges not checked) [triple agonist peptide of SEQ ID NO: 1],1.33
5,H[Aib]QGTFTSDLSRAMEKEAVRLFIEWLREGGPSSGAPPPS (ends and bridges not checked) [triple agonist peptide of SEQ ID NO: 2],25.1
6,"H[Aib]QGTFTSDLSRAMEK(R2)IAVRLFIEWLIEGGPSSGAPPPS-NH2 (reading uncertain) [triple agonist peptide of SEQ ID NO: 13, chemically modified with R2 side chain]",16.1
7,"H[Aib]QGTFTSDLSRALEK(R2)IAARLFIEWLIEGGPSSGAPPPS-NH2 (reading uncertain) [triple agonist peptide of SEQ ID NO: 14, chemically modified with R2 side chain]",0.49
8,"H[Aib]QGTFTSDLSRAMEK(R1)IAVRLFIEWLIEGGPSSGAPPPS-NH2 (reading uncertain) [triple agonist peptide of SEQ ID NO: 11, chemically modified with R1 side chain]",3.89
9,H[Aib]QGTFTSDLSRAMEKEAVRLFIEWLIEGGPSSGAPPPS (ends and bridges not checked) [triple agonist peptide of SEQ ID NO: 3],12.2
10,H[Aib]QGTFTSDLSAAMEKIAVRLFIEWLREGGPSSGAPPPS (ends and bridges not checked) [triple agonist peptide of SEQ ID NO: 5],0.72
11,H[Aib]QGTFTSDLSRYLEKEAVRLFIEWLIDGGPSSGAPPPS (ends and bridges not checked) [triple agonist peptide of SEQ ID NO: 10],21.8
12,H[Aib]QGTFTSDLSRAMEKEAVRLFIEWLIDGGPSSGAPPPS (ends and bridges not checked) [triple agonist peptide of SEQ ID NO: 4],2.17
13,H[Aib]QGTFTSDLSLAQEKEAVRLFIEWLREGGPSSGAPPPS (ends and bridges not checked) [triple agonist peptide of SEQ ID NO: 8],1.21

# Biological target: T1, gastric inhibitory peptide receptor
# T1 sequence (P48546 whole entry, species assumed, looked up): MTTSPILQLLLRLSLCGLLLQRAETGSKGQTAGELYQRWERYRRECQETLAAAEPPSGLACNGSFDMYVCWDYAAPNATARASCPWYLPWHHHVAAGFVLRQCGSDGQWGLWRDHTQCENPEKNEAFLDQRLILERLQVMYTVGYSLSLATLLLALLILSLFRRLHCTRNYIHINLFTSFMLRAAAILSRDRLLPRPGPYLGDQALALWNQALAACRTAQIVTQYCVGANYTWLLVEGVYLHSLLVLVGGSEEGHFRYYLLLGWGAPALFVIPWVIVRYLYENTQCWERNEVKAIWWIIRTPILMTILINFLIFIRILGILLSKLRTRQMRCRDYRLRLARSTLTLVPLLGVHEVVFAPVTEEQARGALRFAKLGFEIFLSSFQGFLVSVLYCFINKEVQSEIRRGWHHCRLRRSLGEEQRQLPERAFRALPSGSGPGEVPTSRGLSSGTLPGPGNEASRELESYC
# Experiment: cell-based or functional assay
row,Binder,"In vitro activity relative to native polypeptide (%), relative to GIP (cAMP HTRF, from EC50) [%]"
1,H[Aib]QGTFTSDLSRAMEKIAVRLFIEWLIEGGPSSGAPPPS (ends and bridges not checked) [triple agonist peptide of SEQ ID NO: 6],3.27
2,H[Aib]QGTFTSDLSRALEKIAARLFIEWLIEGGPSSGAPPPS (ends and bridges not checked) [triple agonist peptide of SEQ ID NO: 7],5.74
3,H[Aib]QGTFTSDLSLEQEKIAVRLFIEWLREGGPSSGAPPPS (ends and bridges not checked) [triple agonist peptide of SEQ ID NO: 9],95.8
4,H[Aib]QGTFTSDLSRAMEKIAVRLFIEWLREGGPSSGAPPPS (ends and bridges not checked) [triple agonist peptide of SEQ ID NO: 1],3.99
5,H[Aib]QGTFTSDLSRAMEKEAVRLFIEWLREGGPSSGAPPPS (ends and bridges not checked) [triple agonist peptide of SEQ ID NO: 2],34
6,"H[Aib]QGTFTSDLSRAMEK(R2)IAVRLFIEWLIEGGPSSGAPPPS-NH2 (reading uncertain) [triple agonist peptide of SEQ ID NO: 13, chemically modified with R2 side chain]",9.83
7,"H[Aib]QGTFTSDLSRALEK(R2)IAARLFIEWLIEGGPSSGAPPPS-NH2 (reading uncertain) [triple agonist peptide of SEQ ID NO: 14, chemically modified with R2 side chain]",3.38
8,"H[Aib]QGTFTSDLSRAMEK(R1)IAVRLFIEWLIEGGPSSGAPPPS-NH2 (reading uncertain) [triple agonist peptide of SEQ ID NO: 11, chemically modified with R1 side chain]",2.53
9,H[Aib]QGTFTSDLSRAMEKEAVRLFIEWLIEGGPSSGAPPPS (ends and bridges not checked) [triple agonist peptide of SEQ ID NO: 3],12.1
10,H[Aib]QGTFTSDLSAAMEKIAVRLFIEWLREGGPSSGAPPPS (ends and bridges not checked) [triple agonist peptide of SEQ ID NO: 5],1.99
11,H[Aib]QGTFTSDLSRYLEKEAVRLFIEWLIDGGPSSGAPPPS (ends and bridges not checked) [triple agonist peptide of SEQ ID NO: 10],94.7
12,H[Aib]QGTFTSDLSRAMEKEAVRLFIEWLIDGGPSSGAPPPS (ends and bridges not checked) [triple agonist peptide of SEQ ID NO: 4],7.37
13,H[Aib]QGTFTSDLSLAQEKEAVRLFIEWLREGGPSSGAPPPS (ends and bridges not checked) [triple agonist peptide of SEQ ID NO: 8],2.02

# Biological target: glucagon-like peptide-1 receptor
# Experiment: cell-based or functional assay
row,Binder,"In vitro activity relative to native polypeptide (%), relative to GLP-1 (cAMP HTRF, from EC50) [%]"
1,H[Aib]QGTFTSDLSRAMEKIAVRLFIEWLIEGGPSSGAPPPS (ends and bridges not checked) [triple agonist peptide of SEQ ID NO: 6],116
2,H[Aib]QGTFTSDLSRALEKIAARLFIEWLIEGGPSSGAPPPS (ends and bridges not checked) [triple agonist peptide of SEQ ID NO: 7],47.5
3,H[Aib]QGTFTSDLSLEQEKIAVRLFIEWLREGGPSSGAPPPS (ends and bridges not checked) [triple agonist peptide of SEQ ID NO: 9],136
4,H[Aib]QGTFTSDLSRAMEKIAVRLFIEWLREGGPSSGAPPPS (ends and bridges not checked) [triple agonist peptide of SEQ ID NO: 1],64.7
5,H[Aib]QGTFTSDLSRAMEKEAVRLFIEWLREGGPSSGAPPPS (ends and bridges not checked) [triple agonist peptide of SEQ ID NO: 2],104
6,"H[Aib]QGTFTSDLSRAMEK(R2)IAVRLFIEWLIEGGPSSGAPPPS-NH2 (reading uncertain) [triple agonist peptide of SEQ ID NO: 13, chemically modified with R2 side chain]",217
7,"H[Aib]QGTFTSDLSRALEK(R2)IAARLFIEWLIEGGPSSGAPPPS-NH2 (reading uncertain) [triple agonist peptide of SEQ ID NO: 14, chemically modified with R2 side chain]",57
8,"H[Aib]QGTFTSDLSRAMEK(R1)IAVRLFIEWLIEGGPSSGAPPPS-NH2 (reading uncertain) [triple agonist peptide of SEQ ID NO: 11, chemically modified with R1 side chain]",191
9,H[Aib]QGTFTSDLSRAMEKEAVRLFIEWLIEGGPSSGAPPPS (ends and bridges not checked) [triple agonist peptide of SEQ ID NO: 3],67.7
10,H[Aib]QGTFTSDLSAAMEKIAVRLFIEWLREGGPSSGAPPPS (ends and bridges not checked) [triple agonist peptide of SEQ ID NO: 5],38.4
11,H[Aib]QGTFTSDLSRYLEKEAVRLFIEWLIDGGPSSGAPPPS (ends and bridges not checked) [triple agonist peptide of SEQ ID NO: 10],71.6
12,H[Aib]QGTFTSDLSRAMEKEAVRLFIEWLIDGGPSSGAPPPS (ends and bridges not checked) [triple agonist peptide of SEQ ID NO: 4],71.4
13,H[Aib]QGTFTSDLSLAQEKEAVRLFIEWLREGGPSSGAPPPS (ends and bridges not checked) [triple agonist peptide of SEQ ID NO: 8],123
